T1: FliF of the native flagellar basal body (native MS ring) (Salmonella enterica serovar Typhimurium …, UniProt P15928 1-560)
T1 construct: source: endogenous, basal body purified from Salmonella HK1003 (sucrose density gradient); copies: 34
T1 sequence: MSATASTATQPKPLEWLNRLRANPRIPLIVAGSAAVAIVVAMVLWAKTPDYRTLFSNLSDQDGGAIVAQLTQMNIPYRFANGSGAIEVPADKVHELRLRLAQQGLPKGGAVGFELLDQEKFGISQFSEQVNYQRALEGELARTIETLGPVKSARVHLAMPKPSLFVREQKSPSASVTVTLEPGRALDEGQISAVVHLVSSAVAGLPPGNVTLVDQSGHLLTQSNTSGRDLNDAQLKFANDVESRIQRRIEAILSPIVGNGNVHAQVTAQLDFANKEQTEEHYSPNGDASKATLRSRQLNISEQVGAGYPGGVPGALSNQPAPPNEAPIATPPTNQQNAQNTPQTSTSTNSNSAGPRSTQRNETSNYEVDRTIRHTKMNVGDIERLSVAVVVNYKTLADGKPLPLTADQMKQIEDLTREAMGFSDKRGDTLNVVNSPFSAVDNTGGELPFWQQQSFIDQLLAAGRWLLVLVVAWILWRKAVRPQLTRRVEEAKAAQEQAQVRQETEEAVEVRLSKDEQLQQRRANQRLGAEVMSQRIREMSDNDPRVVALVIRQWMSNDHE

B1: full-length Salmonella FliF (MS ring, dataset 1, from pKOT112) (natural protein)
chain: T1 sequence
notes: also called MS ring formed by full-length FliF; FliF ring dataset 1; source: E. coli BL21 (DE3) carrying pKOT112, MS ring purified from the membrane fraction (sucrose gradient, LMNG); copies: 34
B2: FliG of the C ring of the native basal body (wild-type, CCW motor) (natural protein)
chain: MSNLSGTDKSVILLMTIGEDRAAEVFKHLSTREVQALSTAMANVRQISNKQLTDVLSEFEQEAEQFAALNINANEYLRSVLVKALGEERASSLLEDILETRDTTSGIETLNFMEPQSAADLIRDEHPQIIATILVHLKRSQAADILALFDERLRHDVMLRIATFGGVQPAALAELTEVLNGLLDGQNLKRSKMGGVRTAAEIINLMKTQQEEAVITAVREFDGELAQKIIDEMFLFENLVDVDDRSIQRLLQEVDSESLLIALKGAEPPLREKFLRNMSQRAADILRDDLANRGPVRLSQVENEQKAILLIVRRLAETGEMVIGSGEDTYV
notes: source: endogenous, basal body purified from Salmonella HK1003 (sucrose density gradient)

Assays:
[1] = target: the molecule itself; experiment: cryo-EM structure; MS ring of full-length FliF (dataset 1, pKOT112) in Buffer S with 0.05% LMNG; 2D classes and 3D refinement with C34 symmetry, 3.7 Å
[2] = target: T1, FliF of the native flagellar basal body …; experiment: cryo-EM structure; 2D class averages of end-on views of the basal body (rivet) purified from Salmonella HK1003; rotational symmetry by autocorrelation and Fourier transformation; assembly formed in cells, purified as a whole; conditions: both partners purified

Row | Binder | stoichiometry N [1] [subunits] | binding result [2]
1 | B1 | 34 | 
2 | B2 |  | binds

— article PMC8270960, “Native flagellar MS ring is formed by 34 subunits with 23-fold and 11-fold subsymmetries” (Nature Communications, 2021)
